Changes are numbered by the printed parent chain.

Assay [1] addresses T1, B. anthracis Surface array protein (Sap), native S-Layer on B. anthracis 34F2 cells (Bacillus anthracis, UniProt P49051 30-814).
T1 sequence: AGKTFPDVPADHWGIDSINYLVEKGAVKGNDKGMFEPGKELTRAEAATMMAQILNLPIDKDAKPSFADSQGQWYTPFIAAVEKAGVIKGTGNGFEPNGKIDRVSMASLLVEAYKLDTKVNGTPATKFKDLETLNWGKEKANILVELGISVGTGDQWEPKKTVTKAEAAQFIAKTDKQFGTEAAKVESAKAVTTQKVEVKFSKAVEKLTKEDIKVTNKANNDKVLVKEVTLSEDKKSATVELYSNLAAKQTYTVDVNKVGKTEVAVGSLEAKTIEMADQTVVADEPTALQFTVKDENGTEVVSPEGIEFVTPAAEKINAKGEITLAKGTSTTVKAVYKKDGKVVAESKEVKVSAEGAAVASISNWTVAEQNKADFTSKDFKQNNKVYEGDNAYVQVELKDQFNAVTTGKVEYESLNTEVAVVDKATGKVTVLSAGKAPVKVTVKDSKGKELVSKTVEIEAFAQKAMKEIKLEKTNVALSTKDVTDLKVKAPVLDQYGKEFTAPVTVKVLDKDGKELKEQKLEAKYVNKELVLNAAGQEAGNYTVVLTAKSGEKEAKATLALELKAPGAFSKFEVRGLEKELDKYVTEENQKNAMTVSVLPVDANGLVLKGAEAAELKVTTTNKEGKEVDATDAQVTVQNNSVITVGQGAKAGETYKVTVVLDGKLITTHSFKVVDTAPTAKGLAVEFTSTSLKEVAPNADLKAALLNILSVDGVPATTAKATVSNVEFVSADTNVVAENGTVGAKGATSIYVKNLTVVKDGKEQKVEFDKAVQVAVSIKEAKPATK
Description: fluorescence microscopy of B. anthracis 34F2 cells with DyLight 650-labelled Nb.

Assay [2] addresses Sap Domain 2 (D2, residues 296-384), isolated recombinant domain (Bacillus anthracis, UniProt P49051 296-384). Kind of assay: dot blot.
Assay [3] concerns the target Sap Domain 1 (D1, residues 216-295), isolated recombinant domain (Bacillus anthracis, UniProt P49051 216-295). Kind of assay: dot blot.

B1: anti-Sap Nanobody703 (VHH)
VHH: QVQLVESGGGLVQPGGSLRLSCAASGFTFSSYAMSWVRQAPGKGLEWVSDINSGGGSTYYADSVKGRFTISRDNAKNTLYLQMNSLKPEDTAVYYCATGGKYGSTWYGQIEYDYWGQGTQVTVSS
Turning to B1, the binding result in assay [1] is “binds”.

B2: anti-Sap Nanobody707 (VHH)
VHH: QVQLVESGGGLVQAGGSLRLSCAASGSIFRINAMGWYRQASGKQRELVAAITSGGNTNYADSVKGRFTISRDNAKNTVYLQMNSLKPEDTAVYYCNADFGTGGRPYDYWGQGTQVTVSS
For B2, in assay [2], the binding result is “no binding”.

B3: anti-Sap Nanobody702 (VHH)
VHH: QVQLVESGGGLVQAGGSLRLSCAASGSIFRVNDMGWYRQAPGKQRELVAIIITGGSTNYADSVKGRFTISRDNAKNTVYLQMNSLRPEDTAVYYCNADFGTGPGRYDYWGQGTQVTVSS
For B3, the binding result in assay [2] is given as “no binding”.

B4: anti-Sap Nanobody684 (VHH)
VHH: B2 VHH with S21F, I31V, A40V, S41T, N56R, A74I, F99L, P105S
As for B4, the binding result in assay [3] is “binds”.

B5: anti-Sap Nanobody683 (VHH)
VHH: B2 VHH with A33D, S41P, N56S, N76K, T77M, N96H, G100S, G103W, R104A
For B5, the binding result in assay [2] is given as “no binding”.

B6: anti-Sap Nanobody692 (VHH)
VHH: QVQLVESGGGLVQAGGSLRLSCAASGSIFRINDMGWYRQAPGKQRELVAVITSGGSANYADSVKGRFSISRDNAKKAVYLRMNSLKPEDTAVYYCNADFGTLGRYDYWGQGTQVTVSS
Regarding B6, the binding result in assay [2] was “no binding”.

B7: anti-Sap Nanobody688 (VHH)
VHH: QVQLVESGGGLVRAGGSLRLSCAASGSIFRINDMGWYRQAPGKQRELVAAITSGGSTNYADSVKGRFTISRDNAKNTVYLQMNSLKPEDTAVYYCNADFSTVRERRYDYWGQGTQVTVSS
On to B7, for which, in assay [2], the binding result was “no binding”.

For the origin of these results see US20200255501A1 (VIB VZW, published 2020).
